The values below come from PMC3698177.

The target of the experiment is phosphorylated β-catenin (UniProt P35222). The experiment in a line: co-immunoprecipitation (IP-GFP), western blot densitometry. To be noted: Triton-X100 cell extracts containing 50 mM NaF; SW480 extract as source of β-catenin; parent: 1. (Immunoblotting shows a protein as a band on a membrane.)
UniProt P35222, sequence (P35222 whole entry): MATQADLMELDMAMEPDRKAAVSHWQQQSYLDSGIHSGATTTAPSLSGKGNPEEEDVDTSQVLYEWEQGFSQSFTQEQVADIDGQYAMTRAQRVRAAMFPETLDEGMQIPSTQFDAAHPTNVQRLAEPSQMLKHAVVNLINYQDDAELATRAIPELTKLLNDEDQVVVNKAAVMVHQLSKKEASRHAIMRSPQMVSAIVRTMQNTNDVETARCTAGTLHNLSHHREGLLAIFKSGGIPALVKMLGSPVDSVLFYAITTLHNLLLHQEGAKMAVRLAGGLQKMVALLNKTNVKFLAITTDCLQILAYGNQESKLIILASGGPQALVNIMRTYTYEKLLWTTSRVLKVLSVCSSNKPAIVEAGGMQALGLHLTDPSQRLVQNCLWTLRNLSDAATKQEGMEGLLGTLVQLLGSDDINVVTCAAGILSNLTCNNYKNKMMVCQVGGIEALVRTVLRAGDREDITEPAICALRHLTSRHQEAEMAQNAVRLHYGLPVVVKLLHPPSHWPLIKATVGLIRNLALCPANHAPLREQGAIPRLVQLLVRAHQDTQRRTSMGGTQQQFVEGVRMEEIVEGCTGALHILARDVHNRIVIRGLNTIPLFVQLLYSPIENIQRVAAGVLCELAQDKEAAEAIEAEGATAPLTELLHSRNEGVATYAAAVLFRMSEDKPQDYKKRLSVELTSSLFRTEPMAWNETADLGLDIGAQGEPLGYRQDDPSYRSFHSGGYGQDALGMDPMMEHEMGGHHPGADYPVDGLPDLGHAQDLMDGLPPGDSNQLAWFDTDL

As for yAPC1289 (from UniProt P25054) 20R1µ, the other: Ratio Phospho/total is 0.9.
